Results reported in patent US20170306033A1 (Amgen, published 2017).
Numbering of substitutions follows the chain as printed.

B1: iPS:326417 (bispecific antibody, human IgG1, kappa, N297G)
light 1: not shown
heavy 1: not shown
light 2: EIVLTQSPGTLSLSPGERATLSCRASQSVSSGYLTWYQQKPGQAPRLLIYGASSRATGIPDRFSGSGSGTDFTLTISRLEPEDFAVYYCQQYGNSLSRFGQGTKLEIKRTVAAPSVFIFPPSDEQLKSGTASVVCLLNNFYPREAKVQWKVDNALQSGNSQESVTEQDSKDSTYSLKSTLTLSKADYEKHKVYACEVTHQGLSSPVTKSFNRGEC
heavy 2: not shown
B2: iPS:326628 (bispecific antibody, human IgG2, kappa, lambda)
light 1: DIQLTQSPSFLSASVGDRVTITCRASQSIGRSLHWYQQKPGKAPKLLIKYASQSLSGVPSRFSGSGSGTEFTLTISSLQPEDFATYYCHQSSRLPFTFGPGTKVDIKRTVAAPSVFIFPPSDEQLKSGTASVVCLLNNFYPREAKVQWKVDNALQSGNSQESVTEQDSKDSTYSLESTLTLSKADYEKHKVYACEVTHQGLSSPVTKSFNRGEC
heavy 1: QVQLVESGAEVVKPGASVKVSCKASGFTFSRFAMHWVRQAPGQGLEWMGVISYDGGNKYYAESVKGRVTMTRDTSTSTLYMELSSLRSEDTAVYYCARGYDVLTGYPDYWGQGTLVTVSSASTKGPSVFPLAPCSRSTSESTAALGCLVKDYFPEPVTVSWNSGALTSGVHTFPAVLQSSGLYSLKSVVTVPSSNFGTQTYTCNVDHKPSNTKVDKTVERKCCVECPPCPAPPVAGPSVFLFPPKPKDTLMISRTPEVTCVVVDVSHEDPEVQFNWYVDGVEVHNAKTKPREEQFNSTFRVVSVLTVVHQDWLNGKEYKCKVSNKGLPAPIEKTISKTKGQPREPQVYTLPPSREEMTKNQVSLTCLVDGFYPSDIAVEWESNGQPENNYDTTPPMLDSDGSFFLYSDLTVDKSRWQQGNVFSCSVMHEALHNHYTQKSLSLSPGK
light 2: not shown
heavy 2: not shown
B3: iPS:327286 (bispecific antibody, human IgG1, kappa, lambda, N297G)
light 1: B2 light 1 with P100E
heavy 1: not shown
light 2: QSVLTQPPSVSAAPGQKVTISCSGSSSNIGNNYVSWYQQLPGTAPKLLIYDNNKRPSGIPDRFSGSKSGTSTTLGITGLQTGDEADYYCGTWDSRLSAVVFGKGTKLTVLGQPKANPTVTLFPPSSEELQANKATLVCLISDFYPGAVTVAWKADGSPVKAGVETTKPSKQSNNKYAAKSYLSLTPEQWKSHRSYSCQVTHEGSTVEKTVAPTECS
heavy 2: QVQLVESGGGVVQPGRSLRLSCAASGFTFSSFGMHWVRQAPGKELEWVAVISFDGSIKYSVDSVKGRFTISRDNSKNTLFLQMNSLRAEDTAVYYCARDRLNYYDSSGYYHYKYYGMAVWGQGTTVTVSSASTKGPSVFPLAPSSKSTSGGTAALGCLVKDYFPEPVTVSWNSGALTSGVHTFPAVLQSSGLYSLESVVTVPSSSLGTQTYICNVNHKPSNTKVDKKVEPKSCDKTHTCPPCPAPELLGGPSVFLFPPKPKDTLMISRTPEVTCVVVDVSHEDPEVKFNWYVDGVEVHNAKTKPCEEQYGSTYRCVSVLTVLHQDWLNGKEYKCKVSNKALPAPIEKTISKAKGQPREPQVYTLPPSRKEMTKNQVSLTCLVKGFYPSDIAVEWESNGQPENNYKTTPPVLKSDGSFFLYSKLTVDKSRWQQGNVFSCSVMHEALHNHYTQKSLSLSPGK
B4: iPS:327278 (bispecific antibody, human IgG1, kappa, lambda, N297G)
light 1: B2 light 1
heavy 1: not shown
light 2: not shown
heavy 2: not shown
B5: iPS:327282 (bispecific antibody, human IgG1, kappa, lambda, N297G)
light 1: B2 light 1
heavy 1: not shown
light 2: B3 light 2 with K103G
heavy 2: B3 heavy 2 with E44G
B6: iPS:327283 (bispecific antibody, human IgG1, kappa, lambda, N297G)
light 1: EIVLTQSPATLSLSPGERATLSCRASQSVGRSLHWYQQKPGQAPRLLIKYASQSLSGIPARFSGSGSGTDFTLTISSLEPEDFAVYYCHQSSRLPFTFGPGTKVDIKRTVAAPSVFIFPPSDEQLKSGTASVVCLLNNFYPREAKVQWKVDNALQSGNSQESVTEQDSKDSTYSLESTLTLSKADYEKHKVYACEVTHQGLSSPVTKSFNRGEC
heavy 1: not shown
light 2: B3 light 2 with K103G
heavy 2: B3 heavy 2 with E44G
B7: iPS:328000 (bispecific antibody, human IgG2, kappa, lambda)
light 1: not shown
heavy 1: QVQLQESGPGLVKPSQTLSLTCTVSGGSISSGGYYWSWIRQHPGKGLEWIGYIYYSGNTYYNPSLKSRVTISGDTSKNQFSLKLRSVTAADTAVYYCTRGGAARGMDVWGQGTTVTVSSASTKGPSVFPLAPCSRSTSESTAALGCLVKDYFPEPVTVSWNSGALTSGVHTFPAVLQSSGLYSLKSVVTVPSSNFGTQTYTCNVDHKPSNTKVDKTVERKCCVECPPCPAPPVAGPSVFLFPPKPKDTLMISRTPEVTCVVVDVSHEDPEVQFNWYVDGVEVHNAKTKPREEQFNSTFRVVSVLTVVHQDWLNGKEYKCKVSNKGLPAPIEKTISKTKGQPREPQVYTLPPSREEMTKNQVSLTCLVDGFYPSDIAVEWESNGQPENNYDTTPPMLDSDGSFFLYSDLTVDKSRWQQGNVFSCSVMHEALHNHYTQKSLSLSPGK
light 2: B3 light 2 with K103G
heavy 2: QVQLVESGGGVVQPGRSLRLSCAASGFTFSSFGMHWVRQAPGKGLEWVAVISFDGSIKYSVDSVKGRFTISRDNSKNTLFLQMNSLRAEDTAVYYCARDRLNYYDSSGYYHYKYYGMAVWGQGTTVTVSSASTKGPSVFPLAPCSRSTSESTAALGCLVKDYFPEPVTVSWNSGALTSGVHTFPAVLQSSGLYSLESVVTVPSSNFGTQTYTCNVDHKPSNTKVDKTVERKCCVECPPCPAPPVAGPSVFLFPPKPKDTLMISRTPEVTCVVVDVSHEDPEVQFNWYVDGVEVHNAKTKPREEQFNSTFRVVSVLTVVHQDWLNGKEYKCKVSNKGLPAPIEKTISKTKGQPREPQVYTLPPSRKKMTKNQVSLTCLVKGFYPSDIAVEWESNGQPENNYKTTPPMLKSDGSFFLYSKLTVDKSRWQQGNVFSCSVMHEALHNHYTQKSLSLSPGK
B8: iPS:327285 (bispecific antibody, human IgG1, kappa, lambda, N297G)
light 1: not shown
heavy 1: not shown
light 2: B3 light 2
heavy 2: B3 heavy 2
B9: iPS:327284 (bispecific antibody, human IgG1, kappa, lambda, N297G)
light 1: DIQMTQSPSSLSASVGDRITITCRASQSISRYLNWYQQKPGKAPKLLIYAASSLQSGIPSRFSGSGSGTDFTLTINSLQPEDFATYFCQQSYSPPFTFGEGTKVDIKRTVAAPSVFIFPPSDEQLKSGTASVVCLLNNFYPREAKVQWKVDNALQSGNSQESVTEQDSKDSTYSLESTLTLSKADYEKHKVYACEVTHQGLSSPVTKSFNRGEC
heavy 1: not shown
light 2: B3 light 2
heavy 2: B3 heavy 2
B10: iPS:327279 (bispecific antibody, human IgG1, kappa, lambda, N297G)
light 1: B6 light 1
heavy 1: not shown
light 2: not shown
heavy 2: not shown
B11: iPS:327280 (bispecific antibody, human IgG1, kappa, lambda, N297G)
light 1: not shown
heavy 1: not shown
light 2: B3 light 2 with K103G
heavy 2: B3 heavy 2 with E44G

Experiments:
[1] = target: T1, human PAC1 receptor (human, UniProt P41586 21-468); assay: cell-based or functional assay
T1 sequence: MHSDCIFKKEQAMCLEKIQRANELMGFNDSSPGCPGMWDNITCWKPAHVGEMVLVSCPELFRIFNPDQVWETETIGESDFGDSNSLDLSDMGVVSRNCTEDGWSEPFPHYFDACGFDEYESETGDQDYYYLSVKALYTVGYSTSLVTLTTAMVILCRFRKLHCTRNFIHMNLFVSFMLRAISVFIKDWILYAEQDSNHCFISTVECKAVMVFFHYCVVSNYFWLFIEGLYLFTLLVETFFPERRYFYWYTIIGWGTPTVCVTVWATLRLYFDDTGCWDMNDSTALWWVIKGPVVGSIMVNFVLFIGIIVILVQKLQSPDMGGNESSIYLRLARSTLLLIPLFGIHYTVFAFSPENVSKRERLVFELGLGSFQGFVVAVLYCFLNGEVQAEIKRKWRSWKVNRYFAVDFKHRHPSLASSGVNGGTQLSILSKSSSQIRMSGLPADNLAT

[2] = target: human CGRP receptor (human, UniProt Q16602 23-461; O60894 27-148); assay: cell-based or functional assay
Sequence of human CGRP receptor (Q16602 23-461 limits assumed, chain 1 of 2): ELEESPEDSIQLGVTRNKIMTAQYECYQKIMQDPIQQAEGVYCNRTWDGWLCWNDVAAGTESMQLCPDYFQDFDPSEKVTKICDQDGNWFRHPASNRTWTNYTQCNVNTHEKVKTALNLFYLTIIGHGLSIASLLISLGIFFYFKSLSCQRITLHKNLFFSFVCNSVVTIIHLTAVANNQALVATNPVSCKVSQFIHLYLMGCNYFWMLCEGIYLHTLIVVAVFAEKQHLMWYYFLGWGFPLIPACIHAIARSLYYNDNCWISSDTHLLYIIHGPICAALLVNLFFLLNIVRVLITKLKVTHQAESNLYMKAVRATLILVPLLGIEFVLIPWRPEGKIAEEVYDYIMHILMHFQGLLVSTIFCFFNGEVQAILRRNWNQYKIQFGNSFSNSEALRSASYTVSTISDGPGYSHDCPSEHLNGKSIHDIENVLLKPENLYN
Sequence of human CGRP receptor (O60894 27-148 limits assumed, chain 2 of 2): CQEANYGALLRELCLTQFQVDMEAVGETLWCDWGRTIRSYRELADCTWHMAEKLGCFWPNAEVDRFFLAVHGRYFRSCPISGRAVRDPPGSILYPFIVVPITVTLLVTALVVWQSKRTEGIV

Binder	% inhibition of human PAC1 [1] [%]	% inhibition of human CGRPR [2] [%]
B1	48	66
B2	61	84
B3	23	85
B4	47	85
B5	58	87
B6	99	85
B7	63	75
B8	9	84
B9	25	77
B10	95	73
B11	83	80
